Data published in patent publication US20200231654A1 (published 2020).
Residue numbers refer to the chain shown, from its start. Read-outs that look alike come from different tables or passages of the source.

B1: active MMP-9-binding peptide M91002 (designed binder)
chain: GSGMKETAAAKFERQHMDSPDLGTDDDDKAMADIGSANSDPQFGLFSKYRTPNCRTGRGPACQMGFQPVCGSDMSTYANECTLCMKIREGGHNIKIIRNGPCGASAAA
B2: active MMP-9-binding peptide M91011 (designed binder)
chain: GSGMKETAAAKFERQHMDSPDLGTDDDDKAMADIGSANSDPQFGLFSKYRTPNCMMYKYAQCSHKSQPVCGSDMSTYANECTLCMKIREGGHNIKIIRNGPCGASAAA
B3: active MMP-9-binding peptide M91005 (designed binder)
chain: B1 chain with T56K, G57R, R58G, A61S, G65S, F66Y, Q67N

Tests used:
active hMMP-9(cat)_His6 [1] = biological target: T1, active hMMP-9(cat)_His6 (UniProt P14780 107-449); experiment: enzyme inhibition; substrate peptide
active hMMP-9(cat)_Q199G = active hMMP-9(cat)_Q199G (UniProt P14780 107-449); experiment: substrate peptide degradation inhibition
active hMMP-9(cat)_P193A = active hMMP-9(cat)_P193A (UniProt P14780 107-449); experiment: substrate peptide degradation inhibition
active hMMP-9(cat)_D185A = active hMMP-9(cat)_D185A (UniProt P14780 107-449); experiment: substrate peptide degradation inhibition
active hMMP-9(cat)_Y179A = active hMMP-9(cat)_Y179A (UniProt P14780 107-449); experiment: substrate peptide degradation inhibition
active hMMP-9(cat)_F110A = active hMMP-9(cat)_F110A (UniProt P14780 107-449); experiment: substrate peptide degradation inhibition
active hMMP-9(cat)_F192A = active hMMP-9(cat)_F192A (UniProt P14780 107-449); experiment: substrate peptide degradation inhibition
active hMMP-9(cat)_R424T = active hMMP-9(cat)_R424T (UniProt P14780 107-449); experiment: substrate peptide enzyme inhibition
active hMMP-9(cat)_V398A = active hMMP-9(cat)_V398A (UniProt P14780 107-449); experiment: substrate peptide enzyme inhibition
active hMMP-9(cat)_L397A = active hMMP-9(cat)_L397A (UniProt P14780 107-449); experiment: substrate peptide enzyme inhibition
active hMMP-9(cat)_Y420A = active hMMP-9(cat)_Y420A (UniProt P14780 107-449); experiment: substrate peptide enzyme inhibition
active hMMP-9(cat)_Y393A = active hMMP-9(cat)_Y393A (UniProt P14780 107-449); experiment: substrate peptide enzyme inhibition
active hMMP-9(cat)_Y423A = active hMMP-9(cat)_Y423A (UniProt P14780 107-449); experiment: substrate peptide enzyme inhibition
active hMMP-9(cat)_His6 [2] = biological target: T1, active hMMP-9(cat)_His6; experiment: enzyme inhibition; substrate peptide; remark: listed apart in the source
active hMMP-9(cat)_L187A = active hMMP-9(cat)_L187A (UniProt P14780 107-449); experiment: substrate peptide degradation inhibition
Sequence of active hMMP-9(cat)_L187A (P14780 107-449 L187A): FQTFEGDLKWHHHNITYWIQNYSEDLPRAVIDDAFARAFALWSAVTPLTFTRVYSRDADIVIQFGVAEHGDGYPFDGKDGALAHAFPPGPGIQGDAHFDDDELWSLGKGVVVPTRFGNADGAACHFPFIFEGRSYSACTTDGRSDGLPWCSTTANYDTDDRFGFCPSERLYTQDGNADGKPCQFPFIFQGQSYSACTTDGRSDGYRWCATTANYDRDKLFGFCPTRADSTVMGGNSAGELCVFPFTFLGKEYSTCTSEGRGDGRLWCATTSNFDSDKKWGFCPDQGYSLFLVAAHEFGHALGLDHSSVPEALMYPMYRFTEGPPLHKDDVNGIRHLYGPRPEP

Sequence of active hMMP-9(cat)_F192A (P14780 107-449 F192A): as the sequence (P14780 107-449 L187A) above, with A81L, F86A counted along it
Sequence of active hMMP-9(cat)_V398A (P14780 107-449 V398A): as the sequence (P14780 107-449 L187A) above, with A81L, V292A counted along it
Sequence of active hMMP-9(cat)_Y423A (P14780 107-449 Y423A): as the sequence (P14780 107-449 L187A) above, with A81L, Y317A counted along it
T1 sequence (P14780 107-449): as the sequence (P14780 107-449 L187A) above, with A81L counted along it
Sequence of active hMMP-9(cat)_Y179A (P14780 107-449 Y179A): as the sequence (P14780 107-449 L187A) above, with Y73A, A81L counted along it
Sequence of active hMMP-9(cat)_F110A (P14780 107-449 F110A): as the sequence (P14780 107-449 L187A) above, with F4A, A81L counted along it
Sequence of active hMMP-9(cat)_P193A (P14780 107-449 P193A): as the sequence (P14780 107-449 L187A) above, with A81L, P87A counted along it
Sequence of active hMMP-9(cat)_L397A (P14780 107-449 L397A): as the sequence (P14780 107-449 L187A) above, with A81L, L291A counted along it
Sequence of active hMMP-9(cat)_Y393A (P14780 107-449 Y393A): as the sequence (P14780 107-449 L187A) above, with A81L, Y287A counted along it
Sequence of active hMMP-9(cat)_Q199G (P14780 107-449 Q199G): as the sequence (P14780 107-449 L187A) above, with A81L, Q93G counted along it
Sequence of active hMMP-9(cat)_D185A (P14780 107-449 D185A): as the sequence (P14780 107-449 L187A) above, with D79A, A81L counted along it
Sequence of active hMMP-9(cat)_R424T (P14780 107-449 R424T): as the sequence (P14780 107-449 L187A) above, with A81L, R318T counted along it
Sequence of active hMMP-9(cat)_Y420A (P14780 107-449 Y420A): as the sequence (P14780 107-449 L187A) above, with A81L, Y314A counted along it

Binder | IC50 (active hMMP-9(cat)_His6 [1]) | IC50 (active hMMP-9(cat)_Q199G) | IC50 (active hMMP-9(cat)_P193A) | IC50 (active hMMP-9(cat)_D185A) | IC50 (active hMMP-9(cat)_Y179A) | IC50 (active hMMP-9(cat)_F110A) | IC50 (active hMMP-9(cat)_F192A) | IC50 (active hMMP-9(cat)_R424T) | IC50 (active hMMP-9(cat)_V398A) | IC50 (active hMMP-9(cat)_L397A) | IC50 (active hMMP-9(cat)_Y420A) | IC50 (active hMMP-9(cat)_Y393A) | IC50 (active hMMP-9(cat)_Y423A) | IC50 (active hMMP-9(cat)_His6 [2]) | IC50 (active hMMP-9(cat)_L187A)
B1 | 5 nM | – | – | – | – | – | – | – | – | – | – | – | – | – | –
B2 | – | 22 nM | 110 nM | 310 nM | 81 nM | 7.3 nM | 83 nM | 45 nM | 79 nM | 57 nM | 33 nM | > 950 nM | > 330 nM | – | –
B3 | – | 40 nM | 13 nM | 29 nM | 55 nM | 69 nM | > 1000 nM | 31 nM | 39 nM | 37 nM | 54 nM | 48 nM | 230 nM | 1.1 nM | 120 nM
